Measurements: patent US20170066836A1 (NATIONAL UNIVERSITY CORPORATION KOCHI UNIVERSITY, published 2017)
Where a chain is given by its changes, count along the chain named.

T1: mouse Glypican-1 expressed on 293 cells (mouse, UniProt Q9QZF2 24-529)
T1 construct: whole, on cells; also called mouse GPC-1; mouse GPC1
T1 sequence (looked up): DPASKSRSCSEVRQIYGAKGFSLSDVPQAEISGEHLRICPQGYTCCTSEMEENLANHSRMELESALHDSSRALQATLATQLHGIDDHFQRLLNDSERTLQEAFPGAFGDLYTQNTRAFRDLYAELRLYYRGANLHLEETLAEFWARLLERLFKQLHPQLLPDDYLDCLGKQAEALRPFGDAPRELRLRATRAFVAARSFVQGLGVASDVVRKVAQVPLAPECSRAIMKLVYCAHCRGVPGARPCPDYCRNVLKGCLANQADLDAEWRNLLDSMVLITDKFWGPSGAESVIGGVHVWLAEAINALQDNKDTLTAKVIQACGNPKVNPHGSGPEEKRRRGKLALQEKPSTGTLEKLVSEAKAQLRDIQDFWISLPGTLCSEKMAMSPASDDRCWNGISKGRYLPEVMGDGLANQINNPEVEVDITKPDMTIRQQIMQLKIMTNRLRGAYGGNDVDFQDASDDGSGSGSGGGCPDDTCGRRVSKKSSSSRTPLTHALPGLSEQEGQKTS

T2: recombinant Glypican-1 (R&D systems 4519-GP-050) (Homo sapiens (Human), UniProt P35052 24-530)
T2 construct: Bought protein
T2 sequence: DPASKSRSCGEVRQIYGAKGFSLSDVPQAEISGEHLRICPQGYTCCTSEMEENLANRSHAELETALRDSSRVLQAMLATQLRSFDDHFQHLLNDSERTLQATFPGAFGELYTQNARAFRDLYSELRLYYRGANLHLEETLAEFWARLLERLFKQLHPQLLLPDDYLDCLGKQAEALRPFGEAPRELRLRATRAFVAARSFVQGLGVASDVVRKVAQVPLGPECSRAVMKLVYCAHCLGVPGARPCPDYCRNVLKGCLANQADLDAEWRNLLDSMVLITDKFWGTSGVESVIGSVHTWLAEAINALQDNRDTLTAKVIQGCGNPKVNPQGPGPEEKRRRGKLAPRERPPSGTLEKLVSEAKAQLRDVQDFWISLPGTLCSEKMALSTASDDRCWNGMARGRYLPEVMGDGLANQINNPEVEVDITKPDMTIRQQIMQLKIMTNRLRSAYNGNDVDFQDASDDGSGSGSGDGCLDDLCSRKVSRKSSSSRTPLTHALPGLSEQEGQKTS

T3: human Glypican-1 forcibly expressed on CT01 chicken T-lymphoblast-like cells (CT01-GPC-1#42) (human, UniProt P35052 24-530)
T3 sequence: T2 sequence

B1: anti-GPC-1 antibody 1-5 (antibody, V domains shown)
VH: AVTLDESGGGLQTPGGALSLVCKASGFKFRSYDMYWVRQAPGKGLEYVAGIINTGRETYYGAAVKGRATISRDNGRSTVRLQLNNLRAEDTGTYFCAKGAAWNYAGSIDAWGHGTEVIVST
VL: ALTQPASVSANPGETVKITCSGGSGSYGWYQQKSPGSAPVTVIYGDNKRPTDISSRFSGSTSGSTNTLTITGVQAEDEAVYFCGSRDNTYAGIFGAGTTLTV
notes: detection was with anti-mouse IgG and the control was mouse IgG2a; also called #2; clone 1-5
B2: anti-GPC-1 antibody 1-57 (antibody, V domains shown)
VH: AVTLDESGGGLQTPGGGLSLVCKGSGFTLTDRGMHWVRQAPGKGLEWVAAISSSGRFTLYAPAVTGRATISRDNGQSTVRLQLNNLRAEDTGTYYCARGNAGGWWADGGEIDAWGHGTEVIVST
VL: ALTQPSSVSANPGETVKITCSGGSGSYGWFQQKSPGSAPVTVIYSNNKRPTDIPSRFSGSKSGSTNTLTITGVQADDEAVYFCGSADSSYIGIFGAGTTLTV
notes: detection was with anti-mouse IgG and the control was mouse IgG2a; also called #10; clone 1-57
B3: anti-GPC-1 antibody 1-28 (antibody, V domains shown)
VH: AVTLDESGGGLQTPGRALSLVCKASGFTFSSYTMFWVRQAPGKGLEFVAGIDNTGIYTPYGSAVKGRATISRDNGQSTVRLQLNNLRAEDTGTYYCAKYADACTGPWCGSSAYTASTIDAWGHGTEVIVST
VL: ALTQPASVSANLGGTVEITCSGGGNDYGWYQQKSPGSAPVTVIYDSINRPSNIPSRFSGSTSGSTATLTITGVQADDEAVYFCGSYDSSYVGIFGAGTTLTV
notes: detection was with anti-mouse IgG and the control was mouse IgG2a; also called #7; clone 1-28
B4: anti-GPC-1 antibody 1-12 (antibody, V domains shown)
VH: AVTLDESGGGLQTPGRALSLVCKASGFTFSRYAMYWVRQAPGKGLEFVAGIGNTGRYTGYGSAVKGRATISRDSGQSTVRLQLNNLRAEDTGNYYCAKSVSPYCCDAADIDAWGHGTEVIVST
VL: ALTQPASVSANPGETVKITCSGGSSGYAYGWYQQKSPGSAPVTLLYSNNNRPSDIPSRFSGSKSGSTATLTITGVQAEDEAVYFCGSVDSSSYAGIFGAGTTLTV
notes: it was captured and detected with anti-mouse IgG and the control was mouse IgG2a; also called #4; clone 1-12
B5: anti-GPC-1 antibody 2-63 (antibody, V domains shown)
VH: AVTLDESGGGLQTPGGTLSLVCKASGFDFSSVNMFWVRQAPGKGLEFVAGIDNDATFTLYGSAVKGRASISRDNGQSTVRLQLNNLRAEDTGTYYCAKTLCSTTWGCGAYSAGDIDAWGHGTEVTVST
VL: ALTQPSSVSANPGETVKITCSGGGSSGYGYYGWYQQKSPGSAPVTVIYNNNKRPTDIPSRFSGALSGSTATLTITGVQVEDEAVYYCGSRDNTYVGIFGAGTTLTV
notes: detection was with anti-mouse IgG and the control was mouse IgG2a; also called #18; clone 2-63
B6: anti-GPC-1 antibody 2-60 (antibody, V domains shown)
VH: AVTLDESGGGLQTPGGALSLVCKASGFTYSSYAMGWVRQAPGKGLEFVASISSDGSDTAYGSAVKGRATISRDNRQSTLRLQLNNLRAEDTGTYYCAKSYRCSWNCWDYAAKIDAWGHGTEVTVS
VL: VALTQPASVSANPGETVKITCSGSGSYTGSYYYGWYQQKSPGSAPVTVIYNNNKRPSDIPSRFSGSTSGSTATLTITGVQAEDEAVYFCGSYDRSSDSGIFGAGTTLTV
notes: detection was with anti-mouse IgG and the control was mouse IgG2a; also called #17; clone 2-60
B7: anti-GPC-1 antibody 2-70 (antibody, V domains shown)
VH: AVTLDESGGGLQTPGGALSLVCKASGLSTFSDRGMHWVRQAPGKGLEFVAAISSSGRFTLYGAAVKGRATISRDNGQSTVRLQLNDLRAEDTAIYYCARGTTTGWWADAGEIDAWGHGTEVIVST
VL: ALTQPAFMSANPGETVKITCSGGSYSAYGWFQQKSPGSAPVTLIYNDNIRPSDISSRFSGSKSGSTATLTITGVQADDEAVYFCGNEDRNNTATFGAGTTLTV
notes: detection was with anti-mouse IgG and the control was mouse IgG2a; also called #19; clone 2-70
B8: anti-GPC-1 antibody 1-30 (antibody, V domains shown)
VH: AVTLDESGGGLQTPGGGLSLVCKASGFTLNSYDMLWVRQAPGKGLEFVAAISIASGSSYAPAVKGRATISRDNGQSTVRLQLNNLRAEDTGTYYCARGGTGYYYSDATGQIDAWGHGTEVIVST
VL: ALTQPSSVSANPGETVKITCSGGSSGYGYGWYQQKAPGSAPVTVIYSNNQRPSNIPSRFSGSTSGSTSTLTITGVQADDEAVYYCGSTDSSTYDGIFGAGTTLTV
notes: detection was with anti-mouse IgG
B9: anti-GPC-1 antibody 1-10 (antibody, V domains shown)
VH: AVTLDESGGGLQTPGGGLSLVCKASGFTFSGYDMMWVRQAPGKGLEWVGQISSTGSIQKYGAAVKGRATISRDNGQSTMRLQLNDLRAEDTGTYFCAKSAYGYSSSGPEDIDAWGHGTEVIVST
VL: ALTQPASVSANLGGTVKITCSGGSSDAYGWYQQKSPDSAPVTVIYGNNNRPSDIPSRFSGSTSGSTNTLTITGVQADDEAVYFCGSYDGSTDSDGIFGAGTTLTV
notes: as for B8
B10: anti-GPC-1 antibody 1-4 (antibody, V domains shown)
VH: AVTLEESGGGLQTPGGGLSLVCKASGFDFRNNGMAWVRQAPGKGLEWVAGISGTAYAVYGAAVKGRATISRDNGQSTVRLQLNNLRAEDTATYYCAKTVGSCGIDCHTTGFIDGWGHGTEVIVST
VL: ALTQPSSVSANPGETVKITCSGGSYSYGWFQQKSPGSAPVTVIYWDDERPSGIPSRFSGSKSGSTGTLTITGVQAEDEAVYFCGSRDSSYVGIFGAGTTLTV
notes: as for B8
B11: anti-GPC-1 antibody 1-18 (antibody, V domains shown)
VH: B3 VH with R16G, A115G, I128T
VL: ALTQPSSVSANPGETVKLTCSGGGSYYGWYQQKSPGSAPVTVIYENTERPSNIPSRFSGSTSGSTSTLTIIGVQADDEAVYFCGGYDSSTDAGIFGAGTTLTV
notes: as for B8
B12: anti-GPC-1 antibody 1-50 (antibody, V domains shown)
VH: AVTLDESGGGLQTPGGALSLVCKASGFTFNNNGMSWVRQAPGKGLEWVAGISGAGYSNYAPAVKGRATISRDNGQSTVRLQLNSLRAEDTGTYFCAKVASSCGNECYTSGFIDAWGHGTEVIVST
VL: ALTQPASVSANLGGTVKITCSGGSGSYGWYQQKSPGSAPVTVIFWDNERPSDIPSRFSGSKSGSTHTLTITGVQAEDEAVYFCGSRDRMYDGIFGAGTTLTV
notes: as for B8

Molecular target: T1, mouse Glypican-1 expressed on 293 cells
Assay: FACS on 293 cells forcibly expressing mouse GPC1
Protocol: A mouse Glypican-1 expression vector or an empty vector was transfected to the 293 cell using lipofectamine 2000 and the reactivity with various clones of an anti-Glypican-1 antibody was analyzed by FACS.

| binding result | Binder |
| --- | --- |
| binds | B1 |
| binds | B2 |
| binds | B3 |
| binds | B4 |

Molecular target: T2, recombinant Glypican-1 (R&D systems …)
Assay: Biacore 3000 (SPR): antibody captured on rabbit anti-mouse IgG on a CM5 chip, recombinant Glypican-1 added at various concentrations; BIAevaluation 4.1
Protocol: (§1) Affinity analysis of an anti-Glypican-1 antibody was measured using Biacore 3000. A rabbit anti-mouse IgG polyclonal antibody of the Mouse Antibody Capture Kit was solid-phased to a CM5 sensor tip, various anti-Glypican1 antibody clones were captured, recombinant Glypican-1 (R&D systems 4519-GP-050) was added at various concentrations as a ligand, and binding and dissociation were monitored. The obtained sensorgram was analyzed using BIAevaluation 4.1 software and a KD value was calculated (FIG. 12).

| Kd [nM] | koff [s⁻¹] | kon [M⁻¹ s⁻¹] | Binder |
| --- | --- | --- | --- |
| 20.9 | 0.000951 | 45500 | B1 |
| 6.19 | 0.000848 | 137000 | B5 |
| 176 | 0.00213 | 12100 | B2 |
| 15.2 | 0.00105 | 69100 | B6 |
|  | 0.000488 | 187000 | B4 |

Molecular target: T4, human Glypican-3 expressed on 293 cells (pFLAG-CMV3 hGPC3) (human, UniProt P51654 25-554)
T4 construct: whole, on cells; FLAG-tagged through the vector; also called human GPC-3
T4 sequence (P51654 25-554 limits assumed): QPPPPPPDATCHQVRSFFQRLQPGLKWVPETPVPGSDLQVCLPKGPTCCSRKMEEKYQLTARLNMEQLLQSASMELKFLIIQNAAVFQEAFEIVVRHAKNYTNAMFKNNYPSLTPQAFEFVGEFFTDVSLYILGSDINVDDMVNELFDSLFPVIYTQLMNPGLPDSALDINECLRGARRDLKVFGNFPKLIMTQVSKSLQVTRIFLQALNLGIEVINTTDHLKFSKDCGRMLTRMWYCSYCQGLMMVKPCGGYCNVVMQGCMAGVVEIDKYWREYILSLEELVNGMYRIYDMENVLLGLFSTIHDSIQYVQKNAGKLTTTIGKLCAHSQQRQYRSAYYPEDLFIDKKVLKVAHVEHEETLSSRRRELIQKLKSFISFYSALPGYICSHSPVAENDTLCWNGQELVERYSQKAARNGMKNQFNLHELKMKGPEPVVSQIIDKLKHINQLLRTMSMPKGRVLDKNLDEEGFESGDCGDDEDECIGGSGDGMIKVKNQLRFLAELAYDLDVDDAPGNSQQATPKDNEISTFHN
Assay: FACS on 293 cells transfected with pFLAG-CMV3 hGPC3
Protocol: Subsequently, a characteristic of various anti-Glypican-1 antibodies that reacted with Glypican-1, but not with Glypican-3 was determined to prepare a chimeric protein expression vector having an amino acid sequence of the 430th or more position of Glypican-1 substituted with that of Glypican-3 (FIG. 17). Various expression vectors were transfected into the 293 cell and the reactivity with various anti-Glypican-1 antibodies was analyzed by FACS. Consequently, since the reactivity in FACS is not recognized in three clones #17(2-60), #2(1-5), and #10(1-57), it is believed that the epitope region in these clones is present in the 430th to the 530th corresponding to an extracellular region of Glypican-1 (FIG. 18).

| binding result | Binder |
| --- | --- |
| no binding | B1 |
| no binding | B7 |
| no binding | B2 |
| no binding | B3 |
| no binding | B6 |
| no binding | B4 |

Molecular target: T3, human Glypican-1 forcibly expressed on …
Assay: FACS: clone as primary antibody, FITC-labeled goat anti-mouse IgG as secondary; CT01 cells forcibly expressing human Glypican-1 (CT01-GPC-1#42), Glypican-1-negative CT01 cells as negative cells
Protocol: In carrying out FACS analysis using an antibody, a chicken T-lymphoblast-like cell strain (CT01 cell) was used as a Glypican-1 negative cell and a CT01 cell (CT01-GPC-1#42) forcibly expressing human Glypican-1 was used as a Glypican-1 positive cell. Various clones of the developed antibodies were used as primary antibodies, a FITC-labeled Goat anti-Mouse IgG (H+L chain specific) (Southern Biotech) was used as a secondary antibody, measurement was carried out using FACS Cantoll (BD), and the measurement data was analyzed using Flow Jo (Tree Star). As a result, twenty types of clones were successfully developed as antibodies that can stain Glypican-1 with FACS.

| binding result | Binder |
| --- | --- |
| binds | B8 |
| binds | B9 |
| binds | B10 |
| binds | B11 |
| binds | B12 |

Molecular target: T2, recombinant Glypican-1 (R&D systems …)
Assay: SPR (Biacore 3000): antibody captured by rabbit anti-mouse IgG on a CM5 chip, recombinant Glypican-1 added at various concentrations
Protocol: as §1

| Kd [nM] | Binder |
| --- | --- |
| 2.61 | B4 |
